Source: a protein production outcome set (Wang et al. 2014)

Test: label from the status in PepcDB records

| Sequence | protein production |
| --- | --- |
| ILVKNLPQDSNCQEVHDLLKDYDLKYCYVDRNKRTAFVTLLNGEQAQNAIQMFHQYSFRGKDLIVQLQPTDALLC | not failed |
| MKRKLTTKFIESQKPNPSKRLDFRDELMPGLVLRISTSGTKTFCLHKRISGKMRRLTIGRFGVVSLAEARERVRKVLYEIETGRFEDRTGVEVETKPTLGDVIPDYIEKHAKVHNRDWKRKEALLAKFAALHVKRIDEIKRADVVKACDLIHKSAPVSANRALAHLKHLMGWCVERGMIDASPIAGMKPLSKERSRERVLTDDELGALWTACDAEGYPFGDCMKLLILSGQRRAEVAEMRWTELDLEKRLWTLPSQRAKNGRQHTVPITDAMIDVLRRVPRFLGSDYVFTTTGKSPVSGFGRLKDRLDKALPEGTEPWIIHDLRRTMSTNMAMLGVPQPVTEALLNHKTGVVSGVAAIYNVYSYTDEKCEALEQWNRHLTKMTQGHSDRLAGKMSAQFSA | failed |
| DREREQHKREEAIQNFKALLSDMVRSSDVSWSDTRRTLRKDHRWESGSLLEREEKEKLFNEHIEALTKKKRE | not failed |
| MAPETLAPDTTGLEVRLRLTDDWFTACDLGALLPGRGVAALLPDGGQVALFRDRDGGLYAIDNRDPFTGAAVLSRGLTGTHQGRPFVASPLLKQRFDLTTGECLDDAAMRVETYRVQAVRAVPAVNAVNPALEHHHHHH | failed |
| MKNQFVKCISQLLFLLLIIGVLPVYAQKKSKEKIYRLPDDLETLAGDPALLKKPEGLTVAAYAFPNYHASALHNKIYSQGWTEYNLIRSARPWFEGHQQPRTPLLGELDESKPSTWETYNKLCKQSGIDVLIWDWYWYDGKPCLHEALENGFLEASNTKDVKFACMWTNHPWYVLYPTKRTDGSNAYPPSFDAPDFSKEECWKSLSYMISRYCHLENYWRIDDKPVICIWDARRLESKLGIAGVKQLFAELTDYAKKLGHKGLHFHVTGFSCGNMKEEGYDTVGSYNPMDWIAGRFQPKEIELPDYGTVAADVAFKLWDEHHGQFDIPYVPAVAPGWDSTPRYIAPANRPAKADRSQWPGCTIFKNENPASFKAFVQSSFVYLNKHPEVPRILTIACFNEWSEGHYLLPDNRFGYGMLDALGEALGKEGNHEKHGKLEHHHHHH | not failed |
| MPAITRRALSAGLIAAVALSVLPFAAQAAEELKIGYQKTGLPVIARQQGVIEKALEAKGVKVSWVEFTAGPPLVEALNVGSINVGWTGDAPPIFGQAAGSAIVYVAALPSNGKGEAIFTKPESGIKSVADLKGKKVGVGKGTSAHNLLVAALEKNGLKLSDIDVTYLSPADAAAAFASDKIDAWAVWDPFYAIAETRYKPVTLARTSDVLDVKTYFLANRDYAKSHADTINTNVGALGEAAKWSAANRDKVAAALHEVTGVPLEAQTLAANRSEFGITRIDDKIVASQQETADRFYRLGLIPKQISIKDAVWSGATN | failed |
| MNLGQWGEIMSWLCLLPISGGIVYNLLTVFTTSLFLARSLPKQDFQPGVSVLKPVRGLEKNLEANLRTIAQQNYPAYEVIYCVQDPQDPALPIVKKLQAEFGPEKIIVAVHQIEQGANGKVNNLLGGLKHAKYDILVISDSDTNLRPDYLATMVSPLGDRLVGCVTTPFKLTQAQTWYEGLELLSINADFMPSVLFAEVTGASKACLGPSIAIRRSTLTEIGGLESLADYLVEDFELGQRVWTGGLKMVLLPYVIDAGVNLDNWTNWWSHQLYWDQNTYLARPLPFLATIIIRAVPFAFLFTFCHWSEPWAWLILFITLATRYGTAAIVAQELKDGETIRYLPLLLLRDCFGLVFWALSFSQRQVLWRGITYRLTKGGKMIPASPIPKS | failed |
| MTRSRRGALARSSEGGPFPTADPVADRALCGWRVRSVIDLPELPLWTRDDRLPDVTIAFGRVTPVESASPGMNWHVVGEGRFRFTVASVGSYRISRGRVITIDPQAGVVASAVRQYLLGTAFGVLCHQRGLLPLHASCVAINGRAVAIAGASGAGKSSLAAALVRLGYPLLGDDVCVIDASEINAPHVLPAIPRLKLWRDVLDTFGLIVDPAARILEGIDKYQAQALADRPPPPPPQVPLPLGVVYYLDQAESPDDEGFHAIRGAERAAALAGAVYRRKMGLAMGLLPQIFTATMTVGALVPGHRLLRHGDLSGLDALARSVAARQEGRGLEHHHHHH | failed |
| MDTMRSLRFISAEALVSHPQVARQSLDSVAHNLYPLLFKASYLLEQAEVTRAVLGRWPLEEFRLGALLGPGADHPQDLRDRTCRACLEALVRGLADHVLQDRSRRRLRVADLTGIRDVQVQRCPCGRALGRWGRTQLLARTCCELQAEPLAAGRPVEVLADLFVTEGNFEAVVQALRPAGPAPLRVHCPSFRADSLSPSQLLHVLRLAGPGALRKLEVVHNVRLHAGHVQQLLAQVGFPRLASLTLPTKAFDAPPTYASTPDGEDPLLASIARELSKMAQLTELSVAFSTLTGKIPTLLGPLQTPLRVLDLANCALNHTDMAFLADCAHAAHLEVLDLSGHNLVSLYPSTFFRLLSQASRTLRILTLEECGIVDSHVGMLILGLSPCHRLRQLKFLGNPLSARALRRLFTALCELPELRCIEFPVPKDCYPEGAAYPQDELAMSKFNQQKYDEIAEELRAVLLRADREDIQVSTPLFGSFDPDIQETSNELGAFLLQAFKTALENFSRALKQIE | failed |
| ISDRKMAEIALRESEARFRNLFESNIVGMFFASNQGEIFDANDRFLQMIGFTKEELDLGLVHWDRLTPPEYDQKDQEIIARLRNHETPEPWQKEYYRKDGSRIPVLVGVASIDVELEYTVCIVVDMT | failed |
| MSVRVYIGNLPRDIEQAELDAVFAEAGEVSAKLVTDRKTGKSRGFAFATVASDELADALIERFNGTEVQGSTLKLEKAQPRERDNEGGNNRRRSGGGGNDNRRSGKSAPRVISSGPEGFQPDPRWAQELEKLKELLAAQTVS | failed |
| MDHLPMPKFGPLAGLRVVFSGIEIAGPFAGQMFAEWGAEVIWIENVAWADTIRVQPNYPQLSRRNLHALSLNIFKDEGREAFLKLMETTDIFIEASKGPAFARRGITDEVLWQHNPKLVIAHLSGFGQYGTEEYTNLPAYNTIAQAFSGYLIQNGDVDQPMPAFPYTADYFSGLTATTAALAALHKVRETGKGESIDIAMYEVMLRMGQYFMMDYFNGGEMCPRMSKGKDPYYAGCGLYKCADGYIVMELVGITQIEECFKDIGLAHLLGTPEIPEGTQLIHRIECPYGPLVEEKLDAWLATHTIAEVKERFAELNIACAKVLTVPELESNPQYVARESITQWQTMDGRTCKGPNIMPKFKNNPGQIWRGMPSHGMDTAAILKNIGYSENDIQELVSKGLAKVED | not failed |
| KKVCVDTCVVIDGRITELIERGKLKDATIIIPEAVVSELEYQANMGREIGYKGIEELRKLIEKASEHNIKVEYYGERPTREEIFLAKSGEIDAMIRKVAKETNSILLTSDWIQYNLAKAQGIEAYFLEAAEEEVELVLD | not failed |
| MKKTRRILLGLALIIGLSVGAGCRSTASKSKTANASQSATTRTVTDMAGTKVKIPTKVTRVADLWHANNQVVLLLGGQKKLVATTQMIKQSPWFKTIDPGISRVTAPFAGDDLQTEELLKAKPDVVIAADTAQVKQARKAKIPTINAMYQTFAGLRQSVNLTAQVLGGTAPKIAKAYQKTLTTNLNDVKNRLKDVTFKPKVLHFVNATNLNQVDGTGTIVNEWIKAAGGQNALKQKGNMISVTTETLAKSDPDVIIVGSATTAEARAALKKNAVLSKLTAVKKNRVYGNPQGTFPWDRYSAEEALQVLWAAKKLHPDQFQDLNMVAKTKAFYQQFYHYQLSTAQANRLLNGASSPK | failed |
| MSGMAKYMEIYIDIRDKINQNKYEINEKLPDGDSMARTYDCSKLTVKKALDMLVQEGMIIRRRGAGTFVKSHSTNGGEFALGPMSGLVNTFGKDNIKSKVILFSIEKPSKEVAEKLEMQDDYIYRIIRMREVGHKAYSIEHTYMPLAIIPGLEPHHLEDSIYNYIRDDLKLKMQSAHVWVRGDKSNQEDSKLLDLEEPTFMMEIEKLAHLEDGRVFEYSITRHTYESFVFETVFVQN | failed |
| MQSDHKEKIAILVDVQNVYYTCREAYRSNFDYNQFWYVATQEKEVVSAKAYAIASNDPKQRQFHHILRGVGFEVMLKPYIQRRDGSAKGDWDVGITLDAIEIAPDVDRVILVSGDGDFSLLVERIQQRYNKKVTVYGVPRLTSQTLIDCADNFVAIDDDFLL | not failed |
| MCQTCLSWYARCVAPYFVHAGCSAGAFSQMRRRVIPRAEGVVVEVGFGSGLNLPYYDAARVERLVGIDPDGTMLGLAAPKSRAMPFAVECIRAGGESLPLADGIADTVVVTYAFCTIPDPQAALSEIRRVLKPRGRLIFIEHGQAEGPRGRRWQQRLNRLWGSIAGGCHLNRDPLRLIGGAGFRLLEVQHGRFPLPLWQLGSHHAGIAAAG | failed |
